Our source for the percent of A-ALP immunoprecipitated by anti-Vps35p after cross-linking and percent of total Vps35p cross-linked values is article PMC2192648.

Where two headings read alike, the source gives them in different places.

Common to all, as to assay: cross-linking + co-IP
For test [1], the target named is Vps35p (S. cerevisiae (endogenous in strain AHY63)) (UniProt P34110).
For test [2], the target named is A-ALP (S. cerevisiae).
Test [3] concerns the target A-ALP (S. cerevisiae). This is another data set of the same source.
Test [4] concerns the target A-ALP (S. cerevisiae). The source holds these as a separate data set.

Regarding A-ALP, the percent of A-ALP immunoprecipitated by anti-Vps35p after cross-linking in test [1] was found to be 5%.

B1: Vps35p (natural protein)
chain: MAYADSPENAIAVIKQRTALMNRCLSQHKLMESLQHTSIMLTELRNPNLSPKKYYELYVIIFDSLTNLSTYLIENHPQNHHLADLYELVQYTGNVVPRLYLMITVGTSYLTFNEAPKKEILKDMIEMCRGVQNPIRGLFLRYYLSQRTKELLPEDDPSFNSQFIMNNFIEMNKLWVRLQHQGPLRERETRTRERKELQILVGSQLVRLSQIIDDNFQMYKQDILPTILEQVIQCRDLVSQEYLLDVICQVFADEFHLKTLDTLLQTTLHLNPDVSINKIVLTLVDRLNDYVTRQLEDDPNATSTNAYLDMDVFGTFWDYLTVLNHERPDLSLQQFIPLVESVIVLSLKWYPNNFDNLNKLFELVLQKTKDYGQKNISLESEHLFLVLLSFQNSKLQLTSSTTAPPNSPVTSKKHFIFQLISQCQAYKNILALQSISLQKKVVNEIIDILMDREVEEMADNDSESKLHPPGHSAYLVIEDKLQVQRLLSICEPLIISRSGPPANVASSDTNVDEVFFNRHDEEESWILDPIQEKLAHLIHWIMNTTSRKQTMKNKIQFSLEAQLEILLLIKSSFIKGGINVKYTFPAIITNFWKLMRKCRMIQEYLLKKRPDNKTLLSHYSNLLKQMFKFVSRCINDIFNSCNNSCTDLILKLNLQCAILADQLQLNEISYDFFSQAFTIFEESLSDSKTQLQALIYIAQSLQKTRSLYKEAYYDSLIVRCTLHGSKLLKKQDQCRAVYLCSHLWWATEISNIGEEEGITDNFYRDGKRVLECLQRSLRVADSIMDNEQSCELMVEILNRCLYYFIHGDESETHISIKYINGLIELIKTNLKSLKLEDNSASMITNSISDLHITGENNVKASSNADDGSVITDKESNVAIGSDGTYIQLNTLNGSSTLIRGVVATASGSKLLHQLKYIPIHHFRRTCEYIESQREVDDRFKVIYV
On to B1, for which the results for the percent of total Vps35p cross-linked with A-ALP (S. cerevisiae) [2], with A-ALP (S. cerevisiae) [3] and with A-ALP (S. cerevisiae) [4] were 10%, 26% and 16%, respectively.
